What was measured:
[1] = molecular target: T1, Anti-PSMA Fab (SEQ ID NOs: 19, 20); experiment: phage binding ELISA; clonal phage on biotinylated PSMA Fab captured on neutravidin plates, anti-M13 HRP detection
T1 construct: Biotinylated Fab captured on neutravidin coated plates in the phage ELISA; also called 006 PSMA Fab
Experimental: (§1) Clonal phage were harvested as crude supernatants and screened via standard ELISAs. […] Prior to the addition of clonal phage. wells were incubated with blocking buffer and PSMA antigen or blocking buffer alone. Without washing or aspirating, clonal phage supernatants were then added to the wells and incubated for a short time. Wells were then washed followed by detection of bound phage using a horse radish conjugated anti-M13 antibody.

[2] = molecular target: T1, Anti-PSMA Fab (SEQ ID NOs: 19, 20); experiment: phage binding ELISA on PSMA Fab coated plates; competitor: PSMA antigen
Experimental: as §1

[3] = molecular target: T2, Anti-PSMA Fab (SEQ ID NOs: 19, 20); experiment: phage binding ELISA; biotinylated anti-PSMA Fab captured on neutravidin, bound phage detected with anti-M13 HRP
T2 construct: Biotinylated and captured on neutravidin coated plates in the phage ELISA; also called 006 PSMA Fab
Experimental: as §1

[4] = molecular target: T2, Anti-PSMA Fab (SEQ ID NOs: 19, 20); experiment: phage binding ELISA on captured anti-PSMA Fab; PSMA antigen as competitor
Experimental: as §1

Row | Binder | Anti-PSMA Fab (SEQ ID NOs: 19, 20) signal [1] | Anti-PSMA Fab signal in the presence of PSMA [2] | Anti-PSMA Fab (SEQ ID NOs: 19, 20) signal [3] | Anti-PSMA Fab signal in the presence of PSMA [4]
1 | LCQWYPKFHWMDCD (also called Peptide-210) [Phage-1760] | 0.611 | 0.0695 |  | 
2 | HCEFHDYQSCDVLY [Phage-1761] | 1.89 | 0.126 |  | 
3 | FEKLCVPKWMCEGI (also called Peptide-220) [Phage-1770] | 2.17 | 0.0601 |  | 
4 | EGIRCTPIWMCEGF [Phage-1774] | 2.09 | 0.0778 |  | 
5 | VVKACIPTWMCQFV [Phage-1779 (clonal phage displaying the peptide of SEQ ID NO: 2075)] |  |  | 2.02 | 0.0901
6 | HVKLCKPAWMCQGL [Phage-1769] | 2.18 | 0.0831 |  | 
7 | IDKLCIPFWMCENL [Phage-1771] | 2.16 | 0.0699 |  | 
8 | FEKWCTPPWMCSLF [Phage-1772] | 2.11 | 0.203 |  | 
9 | LDNWCKPSWMCTGF [Phage-1777 (clonal phage displaying the peptide of SEQ ID NO: 2073)] |  |  | 2.05 | 0.0633
10 | LEKLCIPAWMCEWL [Phage-1765] | 2.4 | 0.184 |  | 
11 | VLKWCRPAWMCEVL [Phage-1766] | 2.38 | 0.219 |  | 
12 | FVPLCKPAWMCSFV [Phage-1768] | 2.2 | 0.111 |  | 
13 | DLRLCKPAWMCYFI [Phage-1773] | 2.11 | 0.0751 |  | 
14 | WEKLCTPAWMCVGF [Phage-1764] | 2.44 | 0.105 |  | 
15 | EFKWCIPSWMCHET [Phage-1778 (clonal phage displaying the peptide of SEQ ID NO: 2074)] |  |  | 2.02 | 0.0857
16 | LTKLCIPDWMCSEF [Phage-1776 (clonal phage displaying the peptide of SEQ ID NO: 2072)] |  |  | 2.07 | 0.0876
17 | VTKWCIPPWMCEVT (also called Peptide-230) [Phage-1780 (clonal phage displaying the peptide of SEQ ID NO: 2076)] |  |  | 2 | 0.0864
18 | LCEWWTSHVDAWCA [Phage-1763] | 0.575 | 0.184 |  | 
19 | IPKSCIPSWMCTGF [Phage-1775 (clonal phage displaying the peptide of SEQ ID NO: 2071)] |  |  | 2.08 | 0.101
20 | VGKLCVPEWMCVGL [Phage-1767] | 2.25 | 0.063 |  | 
21 | HCKFHDYHSWYVCY [Phage-1762] | 2.31 | 0.0994 |  | 

Reference: patent publication US20260242478A1 (published 2026)
